The target in assay [1] is T1, mutant CD45 D1-D2 protein N267G, N268G (Homo sapiens, UniProt P08575 225-394, limits assumed).
T1 chain: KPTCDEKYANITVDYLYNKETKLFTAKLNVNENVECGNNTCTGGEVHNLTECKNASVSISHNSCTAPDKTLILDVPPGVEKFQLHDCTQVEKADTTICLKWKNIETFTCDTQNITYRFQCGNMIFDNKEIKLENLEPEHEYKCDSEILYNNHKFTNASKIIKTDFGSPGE
The experiment in a line: binding to mutant CD45 D1-D2 protein relative to WT CD45 D1-D2; method not given.

In assay [2] the target is T2, mutant CD45 D1-D2 protein E259G, N262D (Homo sapiens, UniProt P08575 225-394, limits assumed).
T2 chain: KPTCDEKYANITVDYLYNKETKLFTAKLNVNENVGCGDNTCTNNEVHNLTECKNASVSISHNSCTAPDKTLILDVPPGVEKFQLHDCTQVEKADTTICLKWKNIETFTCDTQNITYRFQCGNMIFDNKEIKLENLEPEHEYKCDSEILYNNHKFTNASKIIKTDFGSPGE
The assay is described as above.

Assay [3] deals with T3, mutant CD45 D1-D2 protein T266A (Homo sapiens, UniProt P08575 225-394, limits assumed).
T3 chain: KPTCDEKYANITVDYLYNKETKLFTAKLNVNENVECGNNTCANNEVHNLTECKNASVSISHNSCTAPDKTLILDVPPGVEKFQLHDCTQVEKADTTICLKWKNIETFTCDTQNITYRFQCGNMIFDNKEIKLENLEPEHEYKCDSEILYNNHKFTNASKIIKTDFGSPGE
The assay is described as above.

In assay [4] the target is T4, mutant CD45 D1-D2 protein N257G (Homo sapiens, UniProt P08575 225-394, limits assumed).
T4 chain: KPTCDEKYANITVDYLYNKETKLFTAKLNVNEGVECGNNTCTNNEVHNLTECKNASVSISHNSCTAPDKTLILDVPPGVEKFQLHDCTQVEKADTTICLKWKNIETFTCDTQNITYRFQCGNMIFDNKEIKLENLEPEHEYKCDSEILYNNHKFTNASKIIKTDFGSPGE
The description is as above.

Assay [5] concerns the target T5, mutant CD45 D1-D2 protein N253G, N255G (Homo sapiens, UniProt P08575 225-394, limits assumed).
T5 chain: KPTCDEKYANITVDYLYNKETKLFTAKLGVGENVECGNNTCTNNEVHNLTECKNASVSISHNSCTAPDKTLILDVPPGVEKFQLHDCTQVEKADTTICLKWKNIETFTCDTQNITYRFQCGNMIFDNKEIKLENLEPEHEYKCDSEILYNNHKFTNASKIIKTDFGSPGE
The assay is described as above.

For assay [6], the target named is T6, purified CD45 protein N286D (Homo sapiens, UniProt P08575 225-394, limits assumed).
T6 construct: Purified CD45 variant of the biosensor assay
T6 chain: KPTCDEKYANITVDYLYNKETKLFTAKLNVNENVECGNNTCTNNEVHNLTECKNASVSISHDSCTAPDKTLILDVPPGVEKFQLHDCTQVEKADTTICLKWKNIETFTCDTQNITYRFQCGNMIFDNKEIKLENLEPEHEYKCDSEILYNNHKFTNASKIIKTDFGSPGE
The experiment in a line: biosensor; 100 nM mAb030-9 captured with Anti-Human IgG Fc Capture (AHC), 300 nM purified CD45 protein. As for the experimental part:
(§1) 300 nM of purified CD45 protein was contacted with the immobilized antibody. At 300 s the biosensor was placed in buffer without purified CD45 protein.

Assay [7] concerns the target T7, purified CD45 protein E256G (Homo sapiens, UniProt P08575 225-394, limits assumed).
T7 construct: Purified CD45 variant of the biosensor assay
T7 chain: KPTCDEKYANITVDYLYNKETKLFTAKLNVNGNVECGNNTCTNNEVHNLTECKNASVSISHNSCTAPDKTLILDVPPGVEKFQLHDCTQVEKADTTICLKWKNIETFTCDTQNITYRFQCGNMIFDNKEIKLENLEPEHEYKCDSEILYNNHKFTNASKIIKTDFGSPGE
The assay is described as above. As for the experimental part: as §1

For assay [8], the target named is T8, purified CD45 protein E259G (Homo sapiens, UniProt P08575 225-394, limits assumed).
T8 construct: Purified CD45 variant of the biosensor assay
T8 chain: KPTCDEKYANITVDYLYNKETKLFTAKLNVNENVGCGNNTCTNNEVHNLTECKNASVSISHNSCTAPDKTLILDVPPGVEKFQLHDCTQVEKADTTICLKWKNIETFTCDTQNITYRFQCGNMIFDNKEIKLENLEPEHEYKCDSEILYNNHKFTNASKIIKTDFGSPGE
The assay is described as above. The protocol: as §1

Assay [9] deals with T9, purified CD45 protein N267S (Homo sapiens, UniProt P08575 225-394, limits assumed).
T9 construct: Purified CD45 variant of the biosensor assay
T9 chain: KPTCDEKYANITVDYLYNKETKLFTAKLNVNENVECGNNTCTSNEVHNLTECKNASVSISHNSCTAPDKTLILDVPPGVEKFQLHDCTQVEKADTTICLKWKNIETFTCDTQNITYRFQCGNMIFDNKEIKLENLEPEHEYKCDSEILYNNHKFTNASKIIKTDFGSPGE
Described as above. The protocol:
as §1

In assay [10] the target is T10, purified CD45 protein N257D (Homo sapiens, UniProt P08575 225-394, limits assumed).
T10 construct: Purified CD45 variant of the biosensor assay
T10 chain: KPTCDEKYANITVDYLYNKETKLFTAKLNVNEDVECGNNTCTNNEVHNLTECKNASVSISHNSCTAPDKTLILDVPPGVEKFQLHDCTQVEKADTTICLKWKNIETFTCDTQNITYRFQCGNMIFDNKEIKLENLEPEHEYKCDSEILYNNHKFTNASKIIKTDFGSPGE
Described as above. The protocol: as §1

Assay [11] deals with T11, purified CD45 protein N257G (Homo sapiens, UniProt P08575 225-394, limits assumed).
T11 construct: Purified CD45 variant of the biosensor assay
T11 chain: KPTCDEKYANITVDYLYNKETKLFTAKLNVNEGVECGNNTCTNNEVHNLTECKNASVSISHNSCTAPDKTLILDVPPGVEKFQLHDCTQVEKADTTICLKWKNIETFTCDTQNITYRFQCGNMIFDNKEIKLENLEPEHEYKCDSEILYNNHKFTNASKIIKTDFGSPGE
Described as above. As for the experimental part: as §1

Some results are limits rather than exact numbers.

B1: mAb U139AGL030-9 (mAb030-9) (antibody, mouse IgG1, kappa, V domains shown)
VH: EVKLLESGGGLVQPGGSLKLSCAASGFDFSRYWMSWVRQAPGKGLEWIGEINPTSSTINFTPSLKDKVFISRDNAKNTLYLQMSKVRSEDTALYYCARGNYYRYGDAMDYWGQGTSVTVSS
VL: DIALTQSPASLAVSLGQRATISCRASKSVSTSGYSYLHWYQQKPGQPPKLLIYLASNLESGVPARFSGSGSGTDFTLNIHPVEEEDAATYYCQHSRELPFTFGSGTKLEIKR
notes: In the biosensor assay the antibody was captured with Anti-Human IgG Fc Capture (AHC); also called mAb30-9; mAb039-9
With B1, the “% Mutant Binding” value was 1.3% in assay [1]; 2.3% in assay [2]; 73.4% in [3]; 1.7% in assay [4]; 44.9% in [5]. Also, the response in assay [6], in assay [7], in assay [8], in assay [9], in assay [10] and in assay [11] was less than 0.05 nm throughout.
